Data from patent publication US10428140B2, “Anti-EphA4 antibody” (EISAI R&D MANAGEMENT CO., LTD., priority 2015, dated 2019).

T1: human EphA7 (Homo sapiens, UniProt Q15375)
T1 construct: a protein of the extracellular region of each human Eph receptor fused with the SEAP protein and the His tag; made in house; host or cells: Expi293F cells (culture supernatant)
T1 sequence (Q15375 28-555 limits assumed): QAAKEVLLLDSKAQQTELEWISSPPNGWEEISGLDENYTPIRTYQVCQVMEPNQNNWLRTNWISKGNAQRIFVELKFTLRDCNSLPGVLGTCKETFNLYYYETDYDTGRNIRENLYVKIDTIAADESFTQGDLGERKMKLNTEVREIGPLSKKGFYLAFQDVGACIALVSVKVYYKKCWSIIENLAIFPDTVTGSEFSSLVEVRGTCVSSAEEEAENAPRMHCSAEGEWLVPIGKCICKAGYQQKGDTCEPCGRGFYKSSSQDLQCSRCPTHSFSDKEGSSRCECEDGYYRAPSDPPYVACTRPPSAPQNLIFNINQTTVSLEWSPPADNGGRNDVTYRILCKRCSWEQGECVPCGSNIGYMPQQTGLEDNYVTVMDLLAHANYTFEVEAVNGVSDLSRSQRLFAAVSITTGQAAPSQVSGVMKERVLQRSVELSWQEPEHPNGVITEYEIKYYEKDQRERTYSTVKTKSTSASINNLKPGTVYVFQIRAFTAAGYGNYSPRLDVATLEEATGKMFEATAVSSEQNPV

T2: human EphB1 (Homo sapiens, UniProt P54762)
T2 construct: a protein of the extracellular region of each human Eph receptor fused with the SEAP protein and the His tag; made in house; host or cells: Expi293F cells (culture supernatant)
T2 sequence (P54762 18-540 limits assumed): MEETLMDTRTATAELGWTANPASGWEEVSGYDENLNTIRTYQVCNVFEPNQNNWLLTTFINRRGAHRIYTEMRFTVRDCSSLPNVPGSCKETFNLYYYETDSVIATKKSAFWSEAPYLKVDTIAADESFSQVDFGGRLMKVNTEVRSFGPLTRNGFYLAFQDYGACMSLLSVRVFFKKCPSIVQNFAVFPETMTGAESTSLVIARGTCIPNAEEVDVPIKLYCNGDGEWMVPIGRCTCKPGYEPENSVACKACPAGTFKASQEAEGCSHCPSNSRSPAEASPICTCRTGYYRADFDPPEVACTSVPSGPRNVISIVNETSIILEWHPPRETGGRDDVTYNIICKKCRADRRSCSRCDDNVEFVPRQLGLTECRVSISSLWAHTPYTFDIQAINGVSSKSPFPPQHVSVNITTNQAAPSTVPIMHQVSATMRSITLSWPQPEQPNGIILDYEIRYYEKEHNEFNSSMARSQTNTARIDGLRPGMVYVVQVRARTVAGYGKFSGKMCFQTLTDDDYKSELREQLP

T3: human EphB2 (Homo sapiens, UniProt P29323)
T3 construct: a protein of the extracellular region of each human Eph receptor fused with the SEAP protein and the His tag; made in house; host or cells: Expi293F cells
T3 sequence (P29323 19-543 limits assumed): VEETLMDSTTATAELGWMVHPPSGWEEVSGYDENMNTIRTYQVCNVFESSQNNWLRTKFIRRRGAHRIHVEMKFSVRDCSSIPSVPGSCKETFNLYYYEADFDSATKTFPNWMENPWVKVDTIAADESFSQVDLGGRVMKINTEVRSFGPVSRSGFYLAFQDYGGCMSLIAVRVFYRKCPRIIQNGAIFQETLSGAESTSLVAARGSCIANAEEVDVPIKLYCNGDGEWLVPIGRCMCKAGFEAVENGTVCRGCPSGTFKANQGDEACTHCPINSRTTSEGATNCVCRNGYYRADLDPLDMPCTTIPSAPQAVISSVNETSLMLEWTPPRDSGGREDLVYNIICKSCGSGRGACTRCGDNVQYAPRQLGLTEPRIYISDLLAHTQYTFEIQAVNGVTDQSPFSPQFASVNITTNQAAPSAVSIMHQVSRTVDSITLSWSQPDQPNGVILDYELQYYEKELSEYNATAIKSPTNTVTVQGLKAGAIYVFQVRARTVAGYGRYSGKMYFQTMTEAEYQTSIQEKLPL

B1: 87 (antibody, V domains shown)
VL: DIQMTQSPSSLSASVGDRVTITCRASENIYRNLAWYQQKPGKAPQLLLYAATNLADGVPSRFSGSGSGTDYTLTISSLQPEDFATYYCQHFWGTPWTFGQGTKVEIK
VH: QVQLVQSGSELKKPGASVKVSCKASGYTFTDYSMHWVRQAPGQGLEWMGWINTETGEPTYAQGFTGRFVFSLDTSVSTAYLQISSLKAEDTAVYYCARIPLYYYGSRYWYFDVWGQGTTVTVSS
modifications: constant regions without entry; synthetic humanized antibody light chain variable region sequence; synthetic humanized antibody heavy chain variable region sequence
B2: 88 (antibody, V domains shown)
VL: DIQMTQSPSSLSASVGDRVTITCRASENIYRNLAWYQQKPGKAPQLLLYAATNLADGVPSRFSGSGSGTDYTLTISSLQPEDFATYYCQHFWGTPWTFGQGTKVEIK
VH: QVQLVQSGSELKKPGASVKVSCKASGYTFTDYSMHWVRQAPGQGLKWMGWINTETGEPTYAQGFTGRFVFSLDTSVSTAYLQISSLKAEDTAVYYCARIPLYYYGSRYWYFDVWGQGTTVTVSS
modifications: constant regions without entry; synthetic humanized antibody light chain variable region sequence; synthetic humanized antibody heavy chain variable region sequence
B3: 89 (antibody, V domains shown)
VL: DIQMTQSPSSLSASVGDRVTITCRASENIYRNLAWYQQKPGKAPQLLLYAATNLADGVPSRFSGSGSGTDYTLTISSLQPEDFATYYCQHFWGTPWTFGQGTKVEIK
VH: QIQLVQSGSELKKPGASVKVSCKASGYTFTDYSMHWVRQAPGQGLKWMGWINTETGEPTYAQGFTGRFVFSLDTSVSTAYLQISSLKAEDTAVYYCARIPLYYYGSRYWYFDVWGQGTTVTVSS
modifications: constant regions without entry; synthetic humanized antibody light chain variable region sequence; synthetic humanized antibody heavy chain variable region sequence
B4: 90 (antibody, V domains shown)
VL: DIQMTQSPSSLSASVGDRVTITCRASENIYRNLAWYQQKPGKAPQLLLYAATNLADGVPSRFSGSGSGTDYTLTISSLQPEDFATYYCQHFWGTPWTFGQGTKVEIK
VH: QVQLVQSGSELKKPGASVKVSCKASGYTFTDYSMHWVRQAPGQGLEWMGWINTETGEPTYADDFKGRFVFSLDTSVSTAYLQISSLKAEDTAVYYCARIPLYYYGSRYWYFDVWGQGTTVTVSS
modifications: constant regions without entry; synthetic humanized antibody light chain variable region sequence; synthetic humanized antibody heavy chain variable region sequence

Legend:
Assay in all cases: Selectivity ELISA of humanized antibodies for human Eph receptor
Type in all cases: binding
Conditions in all cases: coated protein 1 nM
[1] = target: T4, human EphA5 (Homo sapiens, UniProt P54756)
T4 construct: a protein of the extracellular region of each human Eph receptor fused with the SEAP protein and the His tag; made in house; host or cells: Expi293F cells (culture supernatant)
T4 sequence (P54756 25-573 limits assumed): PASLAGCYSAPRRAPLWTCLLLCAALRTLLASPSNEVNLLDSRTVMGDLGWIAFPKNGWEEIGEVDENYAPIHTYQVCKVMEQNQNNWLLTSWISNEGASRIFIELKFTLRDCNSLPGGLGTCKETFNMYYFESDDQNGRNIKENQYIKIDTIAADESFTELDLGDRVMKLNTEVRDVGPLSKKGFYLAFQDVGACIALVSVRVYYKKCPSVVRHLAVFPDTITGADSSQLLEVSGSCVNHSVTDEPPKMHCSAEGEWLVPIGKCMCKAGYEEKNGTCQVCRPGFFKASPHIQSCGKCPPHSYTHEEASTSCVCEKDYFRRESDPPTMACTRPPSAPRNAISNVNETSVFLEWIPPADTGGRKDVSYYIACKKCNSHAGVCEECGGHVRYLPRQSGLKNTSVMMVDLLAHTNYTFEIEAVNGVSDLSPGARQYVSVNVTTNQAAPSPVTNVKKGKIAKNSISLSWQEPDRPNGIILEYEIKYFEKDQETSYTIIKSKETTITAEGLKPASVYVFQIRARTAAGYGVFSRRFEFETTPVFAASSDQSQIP
In short: (§1)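 Capture ELISA: anti-6-His coat, 1% BlockAce block, Eph ECD-SEAP-His (1 nM final, Expi293F supernatant) 1 h RT, humanized Ab 1 h RT, HRP anti-IgG 1 h RT, TMB, H2SO4 stop, A450.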

[2] = target: T1, human EphA7
In short: as §1

[3] = target: T2, human EphB1
In short: as §1

[4] = target: T3, human EphB2
In short: as §1

| hEphA5-SEAP-: absorbance at 450 nm, percentage with respect to hEphA4-SEAP-His as 100% [1] [%] | hEphA7-SEAP-: absorbance at 450 nm, percentage with respect to hEphA4-SEAP-His as 100% [2] [%] | hEphB1-SEAP-: absorbance at 450 nm, percentage with respect to hEphA4-SEAP-His as 100% [3] [%] | hEphB2-SEAP-: absorbance at 450 nm, percentage with respect to hEphA4-SEAP-His as 100% [4] [%] | Molecule |
| --- | --- | --- | --- | --- |
| 5.4 | 5.3 | 5.3 | 5.4 | B1 |
| 5.9 | 6.0 | 6.1 | 6.0 | B2 |
| 5.8 | 5.4 | 5.7 | 5.7 | B3 |
| 5.1 | 4.9 | 4.9 | 5.9 | B4 |
